Reference: patent US11278600B2, “Human alpha-galactosidase variants” (Codexis, Inc., priority 2014, dated 2022)
Substitutions are numbered along the chain they refer to.

B1: 641 (protein)
chain: LDNGLARTPPMGWLHWERFMCNLDCQEEPDSCISEKLFEEMAERMVTEGWKDAGYEYLCIDDCWMAPQRDSEGRLQADPQRFPHGIRQLANHVHSKGLKLGIYADVGNKTCAGFPGSFGYYDIDAQTFADWGVDLLKFDGCYCDSLENLADGYKHMSLALNRTGRPIVYSCEWPLYMWPFQKPNYTEIRQYCNHWRNFADIDDSWASIKSILDWTSRNQERIVDVAGPGGWNDPDMLVIGNFGLSWDQQVTQMALWAIMAAPLFMPNDLRAISPQAKALLQDKDVIAINQDPLGKQGYQLRKGDNFEVWERPLSGDAWAVAIINRQEIGGPRSYTIPVASLGKGVACNPACFITQLLPVKRQLGFYNWTSRLKSHINPTGTVLLQLENTMQTSLKDLL
modifications: Synthetic Polypeptide sequence of Variant No. 641 of mature Human GLA
B2: 688 (protein)
chain: B1 chain with P10T, E39M, P228Q, P266S
modifications: Synthetic Polypeptide sequence of Variant No. 688 of mature Human GLA
B3: 689 (protein)
chain: B1 chain with P10T, E39M, P266S, N305L
modifications: Synthetic Polypeptide sequence of Variant No. 689 of mature Human GLA
B4: 693 (protein)
chain: B1 chain with P10T, E39M, P266S, W368A
modifications: Synthetic Polypeptide sequence of Variant No. 693 of mature Human GLA
B5: 692 (protein)
chain: B1 chain with P10T, E39M, W256L, P266S
modifications: Synthetic Polypeptide sequence of Variant No. 692 of mature Human GLA
B6: 644 (protein)
chain: B1 chain with P10T, E39M, L237P, P266S
modifications: Synthetic Polypeptide sequence of Variant No. 644 of mature Human GLA
B7: 642 (protein)
chain: B1 chain with E39M, E43D, A261G, P266S, N305L, W368A
modifications: Synthetic Polypeptide sequence of Variant No. 642 of mature Human GLA
B8: 643 (protein)
chain: B1 chain with E39M, P266S, R325S
modifications: Synthetic Polypeptide sequence of Variant No. 643 of mature Human GLA
B9: 646 (protein)
chain: B1 chain with P10T, E39M, G113C, P266S
modifications: Synthetic Polypeptide sequence of Variant No. 646 of mature Human GLA
B10: 691 (protein)
chain: B1 chain with E39M, P266S
modifications: Synthetic Polypeptide sequence of Variant No. 691 of mature Human GLA
B11: 687 (protein)
chain: B1 chain with P10T, E39M, P266S, Q290R, W368A
modifications: Synthetic Polypeptide sequence of Variant No. 687 of mature Human GLA
B12: 645 (protein)
chain: B1 chain with P10T, E39M, P174S, P266S
modifications: Synthetic Polypeptide sequence of Variant No. 645 of mature Human GLA
B13: 690 (protein)
chain: B1 chain with E39M, M156V, P266S
modifications: Synthetic Polypeptide sequence of Variant No. 690 of mature Human GLA

Test: HTP-analysis of supernatants pretreated with acid (MUGal hydrolysis)
Assay type: biochemical
Details: activity of the variant/activity of Rd7BB (SEQ ID NO: 44); challenge at pH 3.5
Outline: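 MUGal hydrolysis was tracked by fluorescence (Ex 355 nm, Em 448 nm) after a 30-180 min reaction at 37° C. in pH 4.8 McIlvaine/citrate buffer, stopped with 1 M sodium carbonate. Beforehand, yeast (INVSc1) culture supernatants carrying GLA variants were held 1-3 h at 37° C. in acidic McIlvaine buffer, pH 3.3-4.3.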

Molecule	Relative Activity of GLA Variants After Challenge at pH 3.5
B1	− (<0.5 relative activity to Rd7BB (SEQ ID NO: 44))
B2	+ (>0.5 to 1.5 relative activity over Rd7BB (SEQ ID NO: 44))
B3	+ (>0.5 to 1.5 relative activity over Rd7BB (SEQ ID NO: 44))
B4	+ (>0.5 to 1.5 relative activity over Rd7BB (SEQ ID NO: 44))
B5	− (<0.5 relative activity to Rd7BB (SEQ ID NO: 44))
B6	− (<0.5 relative activity to Rd7BB (SEQ ID NO: 44))
B7	+ (>0.5 to 1.5 relative activity over Rd7BB (SEQ ID NO: 44))
B8	− (<0.5 relative activity to Rd7BB (SEQ ID NO: 44))
B9	− (<0.5 relative activity to Rd7BB (SEQ ID NO: 44))
B10	+ (>0.5 to 1.5 relative activity over Rd7BB (SEQ ID NO: 44))
B11	− (<0.5 relative activity to Rd7BB (SEQ ID NO: 44))
B12	+ (>0.5 to 1.5 relative activity over Rd7BB (SEQ ID NO: 44))
B13	− (<0.5 relative activity to Rd7BB (SEQ ID NO: 44))

Test: HTP-analysis of supernatants pretreated with base (MUGal hydrolysis)
Assay type: biochemical
Details: activity of the variant/activity of Rd7BB (SEQ ID NO: 44); challenge at pH 7.5
Outline: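 Fluorescence of released 4-MU (Ex 355 nm, Em 448 nm) after carbonate quench reports MUGal hydrolysis by GLA variants secreted from INVSc1 yeast. Before the acidic (pH 4.3-4.8) 30-180 min reaction at 37° C, supernatants had been pre-incubated at pH 7.0-9.7 for 1-18 h at 37° C.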

Molecule	Relative Activity of GLA Variants After Challenge at pH 7.5
B1	− (<0.5 relative activity to Rd7BB (SEQ ID NO: 44))
B2	− (<0.5 relative activity to Rd7BB (SEQ ID NO: 44))
B3	+ (>0.5 to 1.5 relative activity over Rd7BB (SEQ ID NO: 44))
B4	+ (>0.5 to 1.5 relative activity over Rd7BB (SEQ ID NO: 44))
B5	− (<0.5 relative activity to Rd7BB (SEQ ID NO: 44))
B6	− (<0.5 relative activity to Rd7BB (SEQ ID NO: 44))
B7	+ (>0.5 to 1.5 relative activity over Rd7BB (SEQ ID NO: 44))
B8	+ (>0.5 to 1.5 relative activity over Rd7BB (SEQ ID NO: 44))
B9	− (<0.5 relative activity to Rd7BB (SEQ ID NO: 44))
B10	+ (>0.5 to 1.5 relative activity over Rd7BB (SEQ ID NO: 44))
B11	− (<0.5 relative activity to Rd7BB (SEQ ID NO: 44))
B12	− (<0.5 relative activity to Rd7BB (SEQ ID NO: 44))
B13	− (<0.5 relative activity to Rd7BB (SEQ ID NO: 44))

Test: HTP-analysis of yeast culture supernatants, no challenge (MUGal hydrolysis)
Assay type: biochemical
Details: activity of the variant/activity of Rd7BB (SEQ ID NO: 44)
Outline: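 Activity read as 4-methylumbelliferyl α-D-galactopyranoside hydrolysis: fluorescence (355/448 nm) after sodium carbonate stop, following 30-180 min at 37° C with 2 mM MUGal stock at pH 4.6–4.8. Enzyme source is unchallenged culture supernatant of INVSc1 yeast expressing GLA variants, grown 66-84 h at 30° C.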

Molecule	Relative Activity of GLA Variants After No Challenge (NC)
B1	− (<0.5 relative activity to Rd7BB (SEQ ID NO: 44))
B2	+ (>0.5 to 1.5 relative activity over Rd7BB (SEQ ID NO: 44))
B3	+ (>0.5 to 1.5 relative activity over Rd7BB (SEQ ID NO: 44))
B4	+ (>0.5 to 1.5 relative activity over Rd7BB (SEQ ID NO: 44))
B5	− (<0.5 relative activity to Rd7BB (SEQ ID NO: 44))
B6	− (<0.5 relative activity to Rd7BB (SEQ ID NO: 44))
B7	+ (>0.5 to 1.5 relative activity over Rd7BB (SEQ ID NO: 44))
B8	+ (>0.5 to 1.5 relative activity over Rd7BB (SEQ ID NO: 44))
B9	− (<0.5 relative activity to Rd7BB (SEQ ID NO: 44))
B10	+ (>0.5 to 1.5 relative activity over Rd7BB (SEQ ID NO: 44))
B11	+ (>0.5 to 1.5 relative activity over Rd7BB (SEQ ID NO: 44))
B12	+ (>0.5 to 1.5 relative activity over Rd7BB (SEQ ID NO: 44))
B13	+ (>0.5 to 1.5 relative activity over Rd7BB (SEQ ID NO: 44))
